In patent US11485991B2, “Multifunctional recombinant nucleotide dependent glycosyltransferase protein and its method of glycosylation thereof” (Council of Scientific & Industrial Research, priority 2016, dated 2022):
Residue numbers refer to the chain shown, from its start. Names may count otherwise. Ends that are not written are not given here.

B1: GT-CTH C87A (protein)
chain: MGYSENFIANDWFNVEVFNKNKYTLTNQENKDVTELWLQILKGLKFPNELKETVSYSKNLKELSLKTHAEVSVCIIAKNEQDSIRKAINSIYEFSDEIIFIDTGSIDSTKKIVKEIASEKVKIFDYTWQDDFSDARNYSIQKASKEWILIIDADEYVSSDELIKLRLLIDMLDRFKFKDSLRVSCAIYQLDNVITHGQSRLFRNNNKIKYYGLIHEELRNNKGLDPIFNVESEITFFHDGYKEILRKEKCERNIRLLAKMLEKEPDNVRWAYLYCRDSFSINSNIDFEKILLPFLIKNMDESISCENILLTNYTHLILFLITKKYIIDGKSSLASKCIEVLEKMLPNSSDVTFYKFLNKQHSLYEQQFEFLKEVIQFRKNNEYDQYSQIGCNLLHYDLLISGLLFDVKSYDYSYQYFLKLDLANYFSELEIPDEYKMLINKYRENESLEHHHHHH
B2: GT-CTH D130A (protein)
chain: B1 chain with A87C, D130A
B3: GT-CTH D102A (protein)
chain: B1 chain with A87C, D102A
B4: GT-CTH E97A (protein)
chain: B1 chain with A87C, E97A

Columns and labels:
[1] = system: Listeria monocytogenes EGD-e; assay: Agar well diffusion assay of antimicrobial activity of enterocin 96 glycoforms (zone of growth inhibition); assay type: cell-based; details: 50 μM glycoform in agar wells, BHI agar seeded with Listeria monocytogenes EGD-e, 37° C. for 12 h
Procedure: The di-glycosylated, mono-glycosylated and un-glycosylated glycoforms corresponding to enterocin 96 (known bacteriocin) peptide sequence are prepared under controlled GT assay conditions and purified using RP-HPLC based method. The lyophilized product glycoforms including glyco-diversified forms are resuspended in 50 mM Tris-Cl, pH 7.5. The culture of Listeria monocytogenes EGD-e is grown in BHI media at 37° C. for 7-8 h. Agar plates are prepared by mixing 25 μL of saturated culture (A600≈1.5) and 100 mL of molten BHI agar (cooled to 40-45° C.) and pouring the mixture into sterile petri plates. The seeded agar plates are allowed to solidify for 30-45 min and agar wells are prepared using a sterile cork borer. 50 μM of all glycoforms including glyco-diversified forms are poured in to the wells and plates are incubated at 37° C. for 12 h. The antimicrobial activity is determined by the presence and absence of zone of growth inhibition.

[2] = system: synthetic acceptor substrates; assay: In vitro glycosyltransferase (GT) assay of GT-CTH mutants with MS detection of glycosylated product; assay type: biochemical; details: purified mutant of GT-CTH, acceptor substrate and UDP-glucose, MS analysis
Procedure: Purified recombinant nucleotide dependent glycosyltransferase (0.2 μM) is incubated with synthetic acceptor substrates (5 μM) and 100 μM UDP-glucose in a reaction buffer containing 20 mM HEPES, pH 7.5, 50 mM NaCl, 1 mM TCEP and 1 mM MgCl2. The reaction is incubated at 25° C. for 12 h. Each assay reaction was accompanied by control reaction (without enzyme). The reactions are quenched with 5% TFA to pH 2, desalted using ZipTip C18, and vacuum dried and analyzed using mass spectrometry.
Mass spectrometry has been used to detect glycosylation in product of glycosylation assay reactions using Matrix Assisted Laser Desorption Ionization Time of flight mass spectrometry (MALDI-TOF MS) and Liquid chromatography electrospray ionization mass spectrometry (LC/ESI-MS) techniques. MALDI-TOF MS has carried out at AB Sciex 5800 MALDI TOF/TOF and LC/ESI-MS has carried out at 6550 iFunnel QTOF LC/MS (Agilent Technologies) using Zorbax Eclipse plus C8 column (3.0×150 mm, 5μ) of Agilent technologies. For MALDI-TOF analysis and LC-ESI/MS analysis, vacuum dried samples are reconstituted in water and 0.1% formic acid respectively.
Various mutations are introduced in recombinant nucleotide dependent glycosyltransferase (GT-CTH) using side directed mutagenesis (Quick change lightning Mutagenesis kit, Agilent) using GTpET28a plasmid as template. The sequence of mutants is verified through DNA sequencing. The mutated recombinant plasmids are transformed into E. coli Lemo21(DE3) and E. coli BL21(DE3) cells for expression. The over expression, purification and functional analysis of mutants of recombinant nucleotide dependent glycosyltransferase proteins are performed using the above mentioned methods. The list of mutants of recombinant nucleotide dependent glycosyltransferase, created in accordance with present invention identifies D102, R136, W147, D152, A153, D154 residues critical for activity of recombinant nucleotide dependent glycosyltransferase (GT-CTH). Replacement of these residues to alanine results into abolishment of the glycosyltransferase activity.

Molecule	antimicrobial activity (presence and absence of zone of growth inhibition) [1]	In vitro glycosyltransferase activity status [2]
di-glucosylated product: Enterocin 96 peptide (SEQ ID NO: 4) carrying a glucose-glucose disaccharide glycan, made with the recombinant glycosyltransferase (MSKRDCNLMKACCAGQAVTYAIHSLLNRLGGDSSDPAGCNDIVRKYCK; cysteine pairing not given here; also: glucose-glucose disaccharide glycan, site not given here)	more antimicrobial activity than mono-glucosylated product	
B1		Active
B2		Active
B3		Inactive
B4		Active
